The results in this text go back to patent US20200239541A1 (XYPHOS BIOSCIENCES, published 2020).

The target in assay [1] is T1, Fc-NKG2D.wt (human).
T1 construct: also called NKG2D.wt Y|Y; natural Fc-NKG2D
As to the kind of experiment: ELISA, Fc-NKG2D coated, MicAbody titrated; quantitative ELISA of Table 12, fitted EC50 on Fc-NKG2D.wt (20092-fold weaker than on AF). For orientation: An ELISA detects its analyte on a solid surface through an enzyme-linked reagent.

In assay [2] the target is T1, Fc-NKG2D.wt. As to the kind of experiment: ELISA, Fc-NKG2D coated, MicAbody titrated; quantitative ELISA of Table 12, fitted EC50 on Fc-NKG2D.wt (4414-fold weaker than on AF).
For assay [3], the target named is T1, Fc-NKG2D.wt. As to the kind of experiment: ELISA, Fc-NKG2D coated, MicAbody titrated; quantitative ELISA of Table 12, fitted EC50 on Fc-NKG2D.wt (10802-fold weaker than on AF).
In assay [4] the target is T2, Fc-eNKG2D15 (Y152F/Y199F) (human).
T2 construct: also called eNKG2D15 F|F
T2 sequence (chain, as listed by the source Y152F Y199F Y152F Y199F limits assumed): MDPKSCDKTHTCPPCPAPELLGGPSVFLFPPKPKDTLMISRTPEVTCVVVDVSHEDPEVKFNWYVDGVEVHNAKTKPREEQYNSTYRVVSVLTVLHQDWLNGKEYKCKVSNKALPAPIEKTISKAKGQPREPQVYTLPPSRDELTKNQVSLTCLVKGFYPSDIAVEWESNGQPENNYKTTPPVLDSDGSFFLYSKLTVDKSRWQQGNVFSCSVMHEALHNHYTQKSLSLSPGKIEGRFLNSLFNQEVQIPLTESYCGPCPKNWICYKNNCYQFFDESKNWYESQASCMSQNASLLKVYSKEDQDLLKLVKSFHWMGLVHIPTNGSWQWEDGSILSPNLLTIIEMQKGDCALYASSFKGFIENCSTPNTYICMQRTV
As to the kind of experiment: ELISA, Fc-NKG2D coated, MicAbody titrated from 300 nM; ELISA, Fc-eNKG2D15 as capture agent, MicAbody titrated from 300 nM. The protocol: (§1) The binding affinities of α1-α2 variants to the extracellular domains of natural (wild-type) NKG2D and non-natural eNKG2D proteins were analyzed using a plate-based ELISA method. Each of the SEC fractionated natural Fc-NKG2D and non-natural Fc-eNKG2D fusions were coated overnight at 4° C. onto separate wells of Nunc Maxisorp 96 well plates (Thermo Fisher Scientific, Waltham, Mass.) using a coating concentration of 1 μg/mL in phosphate-buffered saline (PBS). The plates were washed three times in PBS/0.05% Tween-20 (PBS-T) at 20-22° C., and blocked with 0.5% bovine serum albumin in PBS (PBS-B) for 2 hours at 20-22° C. MicAbodies were titrated against the plate-bound natural or non-natural Fc-NKG2D fusions for 60 minutes at 20-22° C. in PBS/0.5% bovine serum albumin (BSA)/0.05% Tween-20 (PBS-BT), washed 3 times with PBS-T at 20-22° C., and the bound bispecific proteins detected using an HRP-conjugated anti-human kappa in PBS-BT (Abcam, Cambridge Mass.) and developed with 1-Step™ Ultra TMB ELISA Substrate Solution (Thermo Fisher Scientific, Waltham, Mass.).

The target in assay [5] is T3, Fc-eNKG2D14 (Y152L) (human).
T3 construct: also called eNKG2D14 L|Y
T3 sequence (chain, as listed by the source Y152L Y152L limits assumed): as the sequence (chain, as listed by the source Y152F Y199F Y152F Y199F limits assumed) above, with F312L, F359Y counted along it
As to the kind of experiment: ELISA, Fc-NKG2D coated, MicAbody titrated from 300 nM. The protocol: as §1

The target of assay [6] is T1, Fc-NKG2D.wt. Described as above. As to the method: as §1
Assay [7] addresses T4, Fc-eNKG2D4 (Y152V) (human).
T4 construct: also called eNKG2D4 V|Y
The assay is described as above. As to the method: as §1

The target in assay [8] is T5, Fc-eNKG2D3 (Y152T) (human).
T5 construct: also called eNKG2D3 T|Y
T5 sequence (chain, as listed by the source Y152T Y152T limits assumed): as the sequence (chain, as listed by the source Y152F Y199F Y152F Y199F limits assumed) above, with F312T, F359Y counted along it
The assay is described as above. The protocol: as §1

Assay [9] has as its target T6, Fc-eNKG2D2 (Y152S) (human).
T6 construct: also called eNKG2D2 S|Y; not shown: human IgG1 Fc (without Fab domains)
The assay is described as above. The protocol: as §1

Assay [10] addresses T1, Fc-NKG2D.wt. Put plainly: ELISA (called Kd in the text). The protocol:
as §1

The target of assay [11] is T7, Fc-eNKG2D6 (Y152L/Y199F) (human).
T7 construct: also called eNKG2D6 L|F
T7 sequence (chain, as listed by the source Y152L Y199F Y152L Y199F limits assumed): as the sequence (chain, as listed by the source Y152F Y199F Y152F Y199F limits assumed) above, with F312L counted along it
Put plainly: ELISA, Fc-eNKG2D coated, MicAbody titrated from 300 nM. The protocol: as §1

The target in assay [12] is T8, Fc-eNKG2D12 (Y152D/Y199D) (human).
T8 construct: also called eNKG2D12 D|D
T8 sequence (chain, as listed by the source Y152D Y199D Y152D Y199D limits assumed): as the sequence (chain, as listed by the source Y152F Y199F Y152F Y199F limits assumed) above, with F312D, F359D counted along it
The description is as above. The protocol: as §1

Assay [13] addresses T9, Fc-eNKG2D13 (Y152E/Y199E) (human).
T9 construct: also called eNKG2D13 E|E
Described as above. The protocol: as §1

In assay [14] the target is T3, Fc-eNKG2D14 (Y152L). As to the kind of experiment: BLI (Octet), Fc-eNKG2D captured on AHC tips, 20 nM MicAbody. The protocol: (§2) Additional biophysical analysis of eNKG2D variant binding to ligands was also performed with Bio-Layer Interferometry (BLI) using the FortéBio Octet system (all FortéBio LLC, Fremont, Calif.). For these experiments human NKG2D ligands MICA-Fc, MICB-Fc, ULBP1-Fc, ULBP2-Fc, ULBP3-Fc, and ULBP4-Fc were purchased from R&D Systems, Inc. (Minneapolis, Minn.). Ligands in the MicAbody format were captured on anti-human IgG Fc capture (AHC) biosensor tips. After a baselines were established, tips were exposed to a titration series of Fc-eNKG2D fusion proteins ranging from 300 nM to 0.41 nM and association/dissociation kinetics monitored with all steps performed in PBS-BT. Subsequently, Fc-eNKG2D fusion proteins were captured onto AHC tips and MicAbodies were titrated to characterize binding kinetics.
(§3) Binding analysis under the same conditions was then performed with Fc-eNKG2D fusion receptors as the capture agent, and the level of binding for each eNKG2D ranked as a percentage of the maximal binding response established by Fc-NKG2D.wt (Table 2).

For assay [15], the target named is T10, Fc-NKG2D.Y152A (human).
T10 construct: also called eNKG2D A|Y; Fc-NKG2D.YA
T10 sequence (chain, as listed by the source Y152A Y152A limits assumed): as the sequence (chain, as listed by the source Y152F Y199F Y152F Y199F limits assumed) above, with F312A, F359Y counted along it
The description is as above. As to the method:
as §2, §3

For assay [16], the target named is T11, Fc-eNKG2D1 (Y199F) (human).
T11 construct: also called eNKG2D1 Y|F; not shown: human IgG1 Fc (without Fab domains)
T11 sequence (chain, as listed by the source Y199F Y199F): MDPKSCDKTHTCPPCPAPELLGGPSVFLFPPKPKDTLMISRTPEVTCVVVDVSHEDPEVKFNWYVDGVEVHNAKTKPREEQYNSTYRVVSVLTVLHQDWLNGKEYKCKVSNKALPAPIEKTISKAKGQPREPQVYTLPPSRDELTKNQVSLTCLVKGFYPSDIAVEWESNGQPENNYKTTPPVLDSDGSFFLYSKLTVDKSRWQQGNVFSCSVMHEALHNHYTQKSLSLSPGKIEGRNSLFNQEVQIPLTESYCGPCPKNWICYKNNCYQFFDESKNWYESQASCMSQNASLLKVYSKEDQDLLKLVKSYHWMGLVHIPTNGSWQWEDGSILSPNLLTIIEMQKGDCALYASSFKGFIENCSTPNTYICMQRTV
The description is as above. As to the method:
as §2, §3

Assay [17] deals with T4, Fc-eNKG2D4 (Y152V). Described as above. The protocol:
as §2, §3

Assay [18] concerns the target T5, Fc-eNKG2D3 (Y152T). The description is as above. The protocol:
as §2, §3

Assay [19] concerns the target T6, Fc-eNKG2D2 (Y152S). The description is as above. As to the method:
as §2, §3

In assay [20] the target is T7, Fc-eNKG2D6 (Y152L/Y199F). As to the kind of experiment: ELISA, Fc-NKG2D coated, MicAbody titrated from 300 nM. As to the method: as §1
Assay [21] deals with T2, Fc-eNKG2D15 (Y152F/Y199F). The description is as above. As to the method:
as §1

The target in assay [22] is T12, Fc-eNKG2D7 (Y152S/Y199F) (human).
T12 construct: also called eNKG2D7 S|F
T12 sequence (chain, as listed by the source Y152S Y199F Y152S Y199F limits assumed): as the sequence (chain, as listed by the source Y152F Y199F Y152F Y199F limits assumed) above, with F312S counted along it
As to the kind of experiment: BLI (Octet), Fc-eNKG2D captured on AHC tips, 20 nM MicAbody. As to the method: as §2, §3
In general terms: In BLI a coated tip is dipped into the sample, and binding shifts an interference pattern.

Assay [23] has as its target T13, Fc-eNKG2D8 (Y152T/Y199F) (human).
T13 construct: also called eNKG2D8 T|F
Described as above. The protocol: as §2, §3

Assay [24] addresses T14, Fc-eNKG2D5 (Y152A/Y199F) (human).
T14 construct: also called eNKG2D5 A|F; Fc-NKG2D.AF
Described as above. The protocol: as §2, §3

Assay [25] deals with T15, Fc-eNKG2D9 (Y152V/Y199F) (human).
T15 construct: also called eNKG2D9 V|F
T15 sequence (chain, as listed by the source Y152V Y199F Y152V Y199F limits assumed): as the sequence (chain, as listed by the source Y152F Y199F Y152F Y199F limits assumed) above, with F312V counted along it
The assay is described as above. As to the method:
as §2, §3

T6 sequence (chain, as listed by the source Y152S Y152S): as the sequence (chain, as listed by the source Y199F Y199F) above, with Y310S, F357Y counted along it
T1 sequence (chain, as listed by the source limits assumed): as the sequence (chain, as listed by the source Y152F Y199F Y152F Y199F limits assumed) above, with F312Y, F359Y counted along it
T4 sequence (chain, as listed by the source Y152V Y152V limits assumed): as the sequence (chain, as listed by the source Y152F Y199F Y152F Y199F limits assumed) above, with F312V, F359Y counted along it
T9 sequence (chain, as listed by the source Y152E Y199E Y152E Y199E limits assumed): as the sequence (chain, as listed by the source Y152F Y199F Y152F Y199F limits assumed) above, with F312E, F359E counted along it
T14 sequence (chain, as listed by the source Y152A Y199F Y152A Y199F limits assumed): as the sequence (chain, as listed by the source Y152F Y199F Y152F Y199F limits assumed) above, with F312A counted along it
T13 sequence (chain, as listed by the source Y152T Y199F Y152T Y199F limits assumed): as the sequence (chain, as listed by the source Y152F Y199F Y152F Y199F limits assumed) above, with F312T counted along it

B1: rituximab-MicAbody with ULBP2 variant AA (bispecific antibody, human IgG1, kappa)
heavy: not shown
light: QIVLSQSPAILSASPGEKVTMTCRASSSVSYIHWFQQKPGSSPKPWIYATSNLASGVPVRFSGSGSGTSYSLTISRVEAEDAATYYCQQWTSNPPTFGGGTKLEIKTVAAPSVFIFPPSDEQLKSGTASVVCLLNNFYPREAKVQWKVDNALQSGNSQESVTEQDSKDSTYSLSSTLTLSKADYEKHKVYACEVTHQGLSSPVTKSFNRGECAPTSSSGGGGSEPHSLSYDITVIPKFRPGPRWCAVQGQVDEKTFLHYDCGNKTVTPVSPLGKKLNVTTAWKAQNPVLREVVDILTEQLWDIQLENYTPKEPLTLQARMSCEQKAEGHSSGSWQFSFDGQIFLLFDSEKRMWTTVHPGARKMKEKWENDKVVATMFWSWSMGDCIGWLEDFLMGMDSTLEPS
notes: also called ULBP2.AA
As a reminder, the EC50 is the concentration at which the effect is half-maximal. Read a high EC50 as weaker potency. Turning to B1, in assay [1], the EC50 worked out at 655 nM.

B2: rituximab-MicAbody with ULBP2 variant C (bispecific antibody, human IgG1, kappa)
heavy: not shown
light: QIVLSQSPAILSASPGEKVTMTCRASSSVSYIHWFQQKPGSSPKPWIYATSNLASGVPVRFSGSGSGTSYSLTISRVEAEDAATYYCQQWTSNPPTFGGGTKLEIKTVAAPSVFIFPPSDEQLKSGTASVVCLLNNFYPREAKVQWKVDNALQSGNSQESVTEQDSKDSTYSLSSTLTLSKADYEKHKVYACEVTHQGLSSPVTKSFNRGECAPTSSSGGGGSEPHSLSYDITVIPKFRPGPRWCAVQGQVDEKTFLHYDCGNKTVTPVSPLGKKLNVTTAWKAQNPVLREVVDILTEQLWDIQLENYTPKEPLTLQARMSCEQKAEGHSSGSWQFSFDGQIFLLFDSEKRMWTTVHPGARKMKEKWENDKVVATILWQTSMGDCIGWLEDFLMGMDSTLEPS
notes: also called ULBP2.C
In assay [2], B2 returned an EC50 of 130 nM.

B3: rituximab-MicAbody with ULBP2 variant AB (bispecific antibody, human IgG1, kappa)
heavy: not shown
light: QIVLSQSPAILSASPGEKVTMTCRASSSVSYIHWFQQKPGSSPKPWIYATSNLASGVPVRFSGSGSGTSYSLTISRVEAEDAATYYCQQWTSNPPTFGGGTKLEIKTVAAPSVFIFPPSDEQLKSGTASVVCLLNNFYPREAKVQWKVDNALQSGNSQESVTEQDSKDSTYSLSSTLTLSKADYEKHKVYACEVTHQGLSSPVTKSFNRGECAPTSSSGGGGSEPHSLSYDITVIPKFRPGPRWCAVQGQVDEKTFLHYDCGNKTVTPVSPLGKKLNVTTAWKAQNPVLREVVDILTEQLWDIQLENYTPKEPLTLQARMSCEQKAEGHSSGSWQFSFDGQIFLLFDSEKRMWTTVHPGARKMKEKWENDKVVATLMWQWSMGDCIGWLEDFLMGMDSTLEPS
notes: also called ULBP2.AB
In assay [3], B3 had an EC50 of 389 nM.

B4: trastuzumab-MICwed MicAbody (bispecific antibody, human IgG1, kappa)
heavy: not shown
light: not shown
chain: EPHSLRYNLTVLSWDGSVQSGFLTEVHLDGQPFLRCDRQKCRAKPQGQWAEDVLGNKTWDRETRDLTGWGKDLRMTLAHIKDQKEGLHSLQEIRVCEIHEDNSTRSSQHFYYDGELFLSQNLETKEWTMPQSSRAQTLAMNVRNFLKEDAMETDTHYHAMHADCLQELRRYLKSGVVLRRTV
On to B4, for which the 50% effective concentration (EC50) in [4] was found to be 31.3 nM; in assay [5], 9.39 nM; in [6] it was 0.0067 nM; in [7], 4.84 nM; in assay [8], 4.33 nM; in assay [9] it was 4.16 nM. In assay [10], this molecule had an EC50 of 0.007 nM. Moreover, the binding result in assay [11], in [12] and in assay [13] was “no binding (tested: 300 nM)” each time. For the same molecule, the “percent of the maximal binding response of Fc-NKG2D.wt” value (shortened to “percent”) in [14] worked out at 50%; in assay [15], 50%; in [16], 100%; in assay [17] it was 50%; in [18], 50%; in [19], 50%.

B5: trastuzumab-MIC25 MicAbody (bispecific antibody, human IgG1, kappa)
heavy: not shown
light: not shown
chain: EPHSLRYNLTVLSWDGSVQSGFLTEVHLDGQPFLRCDRQKCRAKPQGQWAEDVLGNKTWDRETRDLTGWGKDLRMTLAHIKDQKEGLHSLQEIRVCEIHEDNSTRSSQHFYYDGELFLSQNLETLEWTMPQSSRAQTLAMNVRNFLKEDAMETDTHYHAMRADCLSELRRYLKSGVVLRRTV
Turning to B5, the EC50 was 0.01 nM in assay [5]; 0.37 nM in assay [20]; 0.046 nM in [21]; approximately 0.0039 nM in assay [6]; approximately 0.0043 nM in assay [7]; 0.0056 nM in assay [8]. The EC50 in [9] is 0.0056 nM; in assay [10], approximately 0.005 nM. Also, the binding result in [12] and in assay [13] was “no binding (tested: 300 nM)” each time. In addition, the “percent” value in assay [22] came out at 50%; in assay [14] it was 100%; in [23], 50%; in assay [15], 100%; in assay [16] it was 100%; in [24], 50%. Moreover, the “percent” value in [17], in [18], in [19] and in assay [25] was 100% throughout.
